Assay results from patent US20240026407A1, “MODIFICATION OF SAPONINS” (GLAXOSMITHKLINE BIOLOGICALS SA, priority 2020, published 2024).

B1: 999 (protein, listed as Prevotella ruminicola)
chain: MRKFLTIICVACCYASATFAQAWPQPKPEAKPGTRWWWLGSAVNQRDLQWNLQEYARAGIGAVEITPIYGVKGNDANNIAYLSPQWMQALQSVQDIARPLGIEVDMNCGTGWPFGGPHISLDQAACRAIIKDTIINGKHQYEVEIGHTKQKVKRAAPGGEGWVVDHFDRNAVAHYLDRFEQAFATSGVPYPHTFFNDSYEVYKADWTPTLFDEFQKRRGYDLRTKLPELLGKVDDGNQTLADYRETLSDMLLENFTQQWVAWAHKHGVKVRNQAHGSPANLLDLYAAVDIPEIEGFGLSEFGIKGLRTDPGKTRKNDSDVSMLKYASSAAHVMGKPFTSSETFTWLTEHFRTSLSQMKPDLDLMFTCGVNHVYFHGSCYTPQNAAWPGWKFYASVDMSPTNSIWRDAPFLMKYIERSQSFLQLGEPDNDFLVYLPVRDMWHQRDNNNTLLMQFDIHSMAKKAPQFIRSILTIDSLGYDCDYISDRQLAKVRMQDGMLVTEGGTRYKALIIPSGTTIDASLQAQINRLNAYVIRGEQAADMAKFAKAEQMKTTYGLRAIRRHTADGWHYFIVNLTPKDITGDVTLAVPFESATWFNPMNGDIQPAEVHNGQLHIALKSGESRILQTSNQPSTNITTTASGTEEITLQGPWVLSFTDESPRVEGTFKLNKLQTWETLSDSAAVTMGTGVYTTSIKLSAQQAKQHWQIDLGDVRESARVYINSQFVGCAWAVPFILDCGNTLHKGKNEIRIEVTNLPANRIAELDRKGVQWRKFNEINVVDINYKNTTYADWKPVPSGLNTTVKLVR
B2: 1068 (protein, listed as Pedobacter heparinus)
chain: MINQIFKFSFFALNLLAWYSFTAKSQDLKVFDKATSWITCDKAQDQSNSWIAFRKVVQLDEKPVKALLDISVDSKYWLYINEKLVVFEGGLKRGPNPDDTYYDEADLTEYLKAGTNTIAVLLWYFGKNGFSHHSSGRAGMFFQLDMDKQGKICSDRSWKCSVVPAYLNVYSGDQPNYRLAESNVIYDARLALGDWTSASYNDKTWRNPFVVGPAGCMPWNKLVKRPIPQWKDYGIVNFNLNFPFNATGDTIKVKLPYNAQFTPYLKVEATAGKTIEMFTDNYSGGSENNVRAEYITKTGIQEYESFGWMNGHVMMFVIPKGAKVLSLGYRETGYHTTFAGSFNCNDAFYNKLWEKSSRTLYVNMRDSYMDCPDRERAQWWGDEVTEMTQSFYALDPDANLLAKKGIDELTGWQRSDGVLFSPIPAGNFDLELPVQMLTSVGYYGFWTYYYYTGDLETIRAAYPSIRKYLSLWEMDKNGLVISRTGGWNWGDWGKNVDIDLMSNAWYYLACKGYLEMSKTLNHAEEIKWAENQMSVMKKSFDTRFWTGKAYRSPDYKGQTDDRSNALAVLAGLTAPAKYPLLKDVFLTEEHSSPYMEKYVLEALFKMGYADIALERLKKRYTAMVDSELTTLWEGWKIGVNGYGGGSYNHAWSGGGLILLSRFVAGIEPASPGYETVKIAPQMGSLINCSATVSSVAGLIAVKNTFTNEKEFNQLIESPSPLKIYFPFEVYRIKKIRVNNKKLSEALMLKFKNEGKLELSKGKYKLTVNIN

How the values were obtained:
Type in all cases: biochemical, Quillaja saponaria
[1] = Experiment 6-1: screening of rhamnosidases for derhamnosylation of saponins in treated bark extract (2%), QS-17 2310 to QS-18 2164 (PAR %); details: TBE 2%, pH 7.5, 30 degC, 18 h; TIC peak area ratio percent, LCMS/MS; negative controls 3.061, 2.429
[2] = Experiment 6-1: screening of rhamnosidases for derhamnosylation of saponins in treated bark extract (2%), QS-17 2296 to QS-18 2150 (PAR %); details: TBE 2%, pH 7.5, 30 degC, 18 h; TIC peak area ratio percent of rhamnosylated starting saponin to derhamnosylated product, LCMS/MS; negative controls 4.876, 5.225
[3] = Experiment 6-1: screening of rhamnosidases for derhamnosylation of saponins in treated bark extract (2%), desglucosyl-QS-17 2134 to QS-21 1988 (PAR %); details: TBE 2%, pH 7.5, 30 degC, 18 h; TIC peak area ratio percent, LCMS/MS; negative controls 2.719, 2.158
[4] = Experiment 6-1: specificity of rhamnosidases towards other rhamnose residues (C3 saccharide rhamnose, C28 saccharide rhamnose); details: TBE 2%, pH 7.5, 30 degC, 18 h; LCMS/MS; negative controls 0.18, 0.17

| Molecule | Peak57 (PAR %) [1] [%] | QS-17 (PAR %) [2] [%] | Peak75 (PAR %) [3] [%] | ratio PP/QS-21 [4] |
| --- | --- | --- | --- | --- |
| B1 | 2.714 | 5.614 | 2.571 | 0.16 |
| B2 | 3.156 | 5.521 | 2.370 | 0.17 |
